This note sets out measurements from the RNAGym collection of RNA variant scans (doi:10.7554/elife.80360).

To fix the notation:
B1: Hammerhead Ribozyme (parent)
chain: ACCGGAUGUGCUUUCCGGUCUGAUGAGUCCGUGAGGACGAAACAG

Variants of B1 are the subject of the data set. Put plainly: self-cleavage, relative activity (ratio to wild type); higher = more cleavage; co-transcriptional.
Take C11U G25U: the self-cleavage is 0.318.

Regarding G5A C15U, the self-cleavage is 1.78.

In the case of A40C G45C, the self-cleavage was 0.399.

Take G8C C15G: the self-cleavage was 0.469.

As to A26U U28A, the self-cleavage stood at 0.464.

G36U C38G: the self-cleavage came out at 0.331.

For the variant U12G C43A, the self-cleavage is 0.362.

As for G17C U32G, the self-cleavage amounted to 0.545.

Take C16U C29U: the self-cleavage is 0.988.

For the variant U21C G35A, the self-cleavage worked out at 0.741.

Regarding G31A C43U, the self-cleavage stood at 0.499.

Regarding A34C A37U, the self-cleavage was found to be 0.444.

As for G18C U19A, the self-cleavage worked out at 0.349.

With C30A A37C, the self-cleavage came to 0.428.

In the case of G8C G27U, the self-cleavage was found to be 0.519.

U21C A23C: the self-cleavage worked out at 0.771.

As for U9C C11A, the self-cleavage was determined as 1.6.

Consider C16U G39C, for which the self-cleavage stood at 0.391.

On to G22A A40C, for which the self-cleavage turned out to be 0.371.

On to G35A A44G, for which the self-cleavage is 0.837.

Consider C29A G36U, for which the self-cleavage was found to be 0.624.

For C3A G25C, the self-cleavage came to 0.344.

Consider U28G G36A, for which the self-cleavage stood at 0.573.

Turning to C16U C38U, the self-cleavage was found to be 1.03.

On to G5U U9G, for which the self-cleavage stood at 0.523.

On to U13A C30G, for which the self-cleavage came to 0.947.

Turning to G5U G45A, the self-cleavage amounted to 0.431.

Turning to U21C C30U, the self-cleavage amounted to 0.891.

U12A A42U: the self-cleavage was 0.313.

Take U21A G22C: the self-cleavage was 0.31.

For G8A U14C, the self-cleavage worked out at 0.975.

Turning to G17C G39A, the self-cleavage was determined as 0.342.

Turning to C15U G22C, the self-cleavage came out at 0.288.

Consider U9A G10C, for which the self-cleavage came to 1.

Consider G4C U24C, for which the self-cleavage amounted to 0.631.

Regarding C11U G33U, the self-cleavage was 1.04.

Regarding G10U C16A, the self-cleavage was 1.06.

Consider G18C G27C, for which the self-cleavage is 0.402.

For U7G G27A, the self-cleavage was determined as 0.81.

Take A26G C29G: the self-cleavage was found to be 0.283.

Turning to A34U A41C, the self-cleavage was 0.289.

With C2G A44G, the self-cleavage came to 0.627.

For U13A C20A, the self-cleavage was found to be 0.446.

Consider U12A A37G, for which the self-cleavage was determined as 0.71.

Turning to U28C C29A, the self-cleavage is 0.688.

As for U28A A40U, the self-cleavage stood at 0.41.

With G4C A23U, the self-cleavage stood at 0.314.

In the case of A6G G45A, the self-cleavage turned out to be 0.556.

On to U32G G45U, for which the self-cleavage was determined as 0.587.

Consider U7C A40U, for which the self-cleavage was 0.373.

Regarding C20A G39C, the self-cleavage turned out to be 0.393.

On to C3G U28G, for which the self-cleavage was 0.356.

In the case of G22C G39A, the self-cleavage is 0.364.

Consider U9A G18U, for which the self-cleavage worked out at 0.546.

Take G8C A42G: the self-cleavage turned out to be 0.311.

As to U28A C30G, the self-cleavage was 0.384.

On to C20G U24A, for which the self-cleavage was 0.399.

In the case of U21C G33C, the self-cleavage was 0.756.

For the variant C16A C29A, the self-cleavage is 0.417.

As to C2U G10A, the self-cleavage came to 1.22.

For A1C A26C, the self-cleavage stood at 0.338.

On to C29U U32C, for which the self-cleavage was 0.843.

G8C G22C: the self-cleavage was determined as 0.339.

Regarding U24C U32C, the self-cleavage is 1.2.

G8U G18U: the self-cleavage was 0.779.

As to A6U U28A, the self-cleavage was 0.377.

On to U14A C29A, for which the self-cleavage stood at 0.608.

U7A U9G: the self-cleavage was 1.32.

Turning to U7C G33C, the self-cleavage amounted to 0.963.

As to C3U U28A, the self-cleavage was determined as 0.448.

For G5C G33A, the self-cleavage was determined as 0.776.

With A1U G4A, the self-cleavage is 0.342.

For the variant G10C U12G, the self-cleavage was 1.09.

Turning to A6U C38U, the self-cleavage was 0.627.

Regarding A37U A44C, the self-cleavage is 0.306.

As to A37U A44G, the self-cleavage was found to be 0.801.

For the variant A1C U13G, the self-cleavage amounted to 0.556.

A6C U14A: the self-cleavage stood at 0.536.

For U28A G36A, the self-cleavage is 0.339.

On to G5A U32G, for which the self-cleavage turned out to be 0.533.

Turning to G5C G25U, the self-cleavage turned out to be 0.307.

In the case of U9C G18C, the self-cleavage worked out at 0.47.

On to A23U G45A, for which the self-cleavage came to 0.336.

As to A1G G18A, the self-cleavage was 0.906.

For the variant C20G A26C, the self-cleavage amounted to 0.404.

In the case of A34G A37U, the self-cleavage was 0.47.

On to A34G A37C, for which the self-cleavage was determined as 0.649.

Consider C11G G18A, for which the self-cleavage turned out to be 0.553.

On to C16A G33A, for which the self-cleavage stood at 1.29.

Take G4C C43U: the self-cleavage worked out at 0.298.

Consider C11A G25U, for which the self-cleavage was 0.329.

With C3G A42G, the self-cleavage was 0.256.

Consider A6G G36C, for which the self-cleavage was found to be 0.351.

Take A37U G45U: the self-cleavage is 0.48.

Regarding A37G G45A, the self-cleavage amounted to 0.486.

As to G8A C20A, the self-cleavage is 0.501.

Turning to C2G A26C, the self-cleavage amounted to 0.341.

Regarding C2A C30G, the self-cleavage was found to be 0.333.

For A1G G27C, the self-cleavage came to 0.879.

As to C11U A44C, the self-cleavage is 0.474.

For the variant G25A C29U, the self-cleavage is 0.3.

On to G4C U9C, for which the self-cleavage was determined as 0.704.

Consider G22U G39U, for which the self-cleavage came out at 0.305.

Turning to G22U G39C, the self-cleavage is 0.316.

In the case of G17U U28C, the self-cleavage is 0.495.

Take C16A G17U: the self-cleavage came out at 0.325.

Take C3U U24A: the self-cleavage is 1.24.

U19G U21C: the self-cleavage is 0.471.

C16A A41U: the self-cleavage was 0.37.

As to G5C G18C, the self-cleavage was found to be 0.34.

G4U G8C: the self-cleavage is 0.377.

As to G25C C38U, the self-cleavage was found to be 0.22.

Consider U21A A41G, for which the self-cleavage turned out to be 0.401.

Consider G22A, for which the self-cleavage was 0.356.

For U7A C43U, the self-cleavage came out at 0.302.

For the variant C3A A34U, the self-cleavage worked out at 0.358.

Take G18A A37G: the self-cleavage turned out to be 0.676.

On to A1U G36U, for which the self-cleavage is 0.438.

Regarding U14G C15G, the self-cleavage amounted to 0.771.

As for A6U C29U, the self-cleavage amounted to 0.451.

Turning to A6G C30G, the self-cleavage was determined as 0.594.

As to C20G G45C, the self-cleavage worked out at 0.302.

For the variant C11A A34G, the self-cleavage was 0.996.

For the variant U7A G27C, the self-cleavage amounted to 0.449.

Consider C11G U14G, for which the self-cleavage is 0.74.

For G22U A42U, the self-cleavage is 0.36.

As to G5C U19C, the self-cleavage came out at 0.269.

As for C20G G25U, the self-cleavage was 0.313.

In the case of A6U U24G, the self-cleavage stood at 0.642.

G39C A42G: the self-cleavage came out at 0.279.

Consider C11U G18C, for which the self-cleavage amounted to 0.319.

As for C16U G22C, the self-cleavage amounted to 0.318.

As to A26G A42U, the self-cleavage was 0.286.

Consider A26G A42C, for which the self-cleavage turned out to be 0.231.

As for C15G U28A, the self-cleavage was determined as 0.389.

As for G10C C20A, the self-cleavage was 0.336.

As for G31A A41U, the self-cleavage was found to be 0.399.

Take A1G U19A: the self-cleavage is 0.511.

For A42G A44U, the self-cleavage was 0.233.

As to G17C G25C, the self-cleavage worked out at 0.403.

For the variant G27U G36A, the self-cleavage came out at 0.303.

Regarding U21G G33U, the self-cleavage came to 0.798.

In the case of A26U G39A, the self-cleavage stood at 0.366.

For U12A A34G, the self-cleavage stood at 0.904.

In the case of G4A A41C, the self-cleavage came out at 0.34.

For C11A G33C, the self-cleavage came to 1.27.

Regarding G17A A26U, the self-cleavage was determined as 0.447.

As to U7G C38U, the self-cleavage stood at 1.4.

In the case of A6U A26C, the self-cleavage was 0.393.

Consider G4C G39C, for which the self-cleavage was 0.244.

For U14A U32G, the self-cleavage is 0.989.

In the case of C20A G31C, the self-cleavage was 0.412.

On to G8A G17A, for which the self-cleavage came to 0.539.

In the case of G33A A44G, the self-cleavage is 1.59.

In the case of A1C C11U, the self-cleavage came out at 0.411.

Consider G10U G17U, for which the self-cleavage turned out to be 0.848.

In the case of A26G U28C, the self-cleavage was 0.383.

Take G8C A44G: the self-cleavage came out at 1.47.

For the variant C3G U9G, the self-cleavage turned out to be 0.407.

For the variant G25C A44G, the self-cleavage amounted to 0.556.

G10U A23U: the self-cleavage was determined as 0.421.

For the variant C11G A44C, the self-cleavage worked out at 0.769.

Consider C3A C20G, for which the self-cleavage was 0.254.

For the variant U12C C38A, the self-cleavage was found to be 0.678.

With U7A U21A, the self-cleavage turned out to be 0.359.

As to C2A G27C, the self-cleavage was 0.339.

As for U21A G31A, the self-cleavage was determined as 0.634.
